{
  "source": "the RNAGym collection of RNA variant scans (doi:10.1073/pnas.2313332121)",
  "parents": {"B1": {"name": "TPR 5TU (parent)", "chain": "GGAUCUUCUCGAUCUAACAAAAAAGACAAAUCUGCCACAAAGCUUGAGAGCAUCUUCGGAUGCAGAGGCGGCAGCCUUCGGUGGCGCGAUAGCGCCAACGUUCUCAACUAUGACACGCAAAACGCGUGCUCCGUUGAAUGGAGUUUAUCAUG"}},
  "note": "Variants at the floor of the assay were thinned out.",
  "data": [
    {"variants_of": "B1", "assay": "polymerase ribozyme fitness, log enrichment relative to wild type (log ratio); higher = more active; in vitro selection for triplet polymerase activity", "how_it_was_run": "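Fitness compares each genotype's enrichment to that of the wild type on a logarithmic scale, averaging replicates with inverse-variance weights. The logarithm is base 2. Enrichment came from Illumina sequencing of input and output libraries after one triplicate round of in vitro selection, which included frozen incubation at −7 °C, of PCR-built, transcribed mutant libraries of each subunit of a heterodimeric triplet polymerase ribozyme. Only genotypes with ≥10 input reads and ≥1 read per output were kept.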", "values": [
      {"variant": "GGAUCUUCUCGAUCUAACAAAAAAGACACAUCUGCCACAAAGCUUGAGCGCAUCUUGGGAUGCAGAGGCGGCAGCCUUCGGUGGCGCGAUAGCGCCAACGUUCUCAACUAUGACACGCAAAACGCGUGCUCUGUUGAAUGGAGUUUAUCAUG", "note": "[A29C A49C C57G C132U]", "polymerase ribozyme fitness (log ratio)": "≤ -4.2"},
      {"variant": "GGAUCUUCUCGAUCUAACAAAAAAGACUAAUCUGCCACAAAGCUUGAGAGCAUCUUCGGAGGCAGAGGCGGCAGCCUUCGGUGGCGGGAUAGCGCCAACGUUCUCAACUAUGACACGCAAAACGCGUGCUCCGUUGAAUGGAGUUUAUCAUG", "note": "[A28U U61G C87G]", "polymerase ribozyme fitness (log ratio)": -4.14},
      {"variant": "GGAUCUUCUCGAUCUAACAAAAAAGACACAUCUGCCACAAGGCUUGAGAGCAUCUUCGGAUGCAGAGGCGGCAGCCUUCGGUGGCGCGAUAGCGCCCACGUUCUCAACUAUGACACGCAAAUCGCGUGCUCCGUUGAAUGGAGUUUAUCAUG", "note": "[A29C A41G A97C A122U]", "polymerase ribozyme fitness (log ratio)": "≤ -4.2"},
      {"variant": "GGAUCUUCUCGAUCUAACAAAAAAGACUAAUCUGCCACAAAGCUUGAGAGCAUCUUCGGAUGCAGAGGCGGCAGCCUUCGGUCGCGCGAUAUCGCUAACGUUCUCAACUAUGACACGCAAAACGCGUGCUCCGUUGAAUGGAGUUUAUCAUG", "note": "[A28U G83C G92U C96U]", "polymerase ribozyme fitness (log ratio)": "≤ -4.2"},
      {"variant": "GGAUCUUCUCGAUCUAACAAAAAAGACUAAUCUGCCACAAAGCUUGAGAGCAUCUUCGGAUGCAGAGGCGGCAGCCUUCGGUGGCGCGAUAACGCCAACGUUCUCAACUAUGACACGCAAAACGCGUGCUCCGUUGAAUCGAGUUUAUCAUG", "note": "[A28U G92A G140C]", "polymerase ribozyme fitness (log ratio)": -3.61},
      {"variant": "GGAUCUUCUCGAUCUAACAAAAAAGACUAAUCUGCCACAAAGCUUGAGAGCAUCUUCGGAUGCAGAGGCGGCAGCCUUCGGUGGCGCGAGAGCGCCAAUGUUCUCAACUAUGACACGCAAAACGCGUGCUCCGUUGAAUGUAGUUUAUCAGG", "note": "[A28U U90G C99U G141U U151G]", "polymerase ribozyme fitness (log ratio)": "≤ -4.2"},
      {"variant": "GGAUCUUCUCGAUCUAACAAAAAAGACACAUCUGCCACAAGGCUUGAGAGCAUCUUCGCAUCCAGAGGCGGCAGCCUUCGGUGGCGCGAUAGCGCCAACAUUCUCAACUAUGACACGCAAAACGCGUGCUCCGUUGAAUGCAGUUUAUCAUG", "note": "[A29C A41G G59C G62C G100A G141C]", "polymerase ribozyme fitness (log ratio)": "≤ -4.2"},
      {"variant": "GGAUCUUCUCGAUCUAACAAAAAAGACACAUCUGCCACAAUGCUUGAGAGCAUCUUCGGAUGCAGAGGCGGCAGCCUUCGGUAGCGCGAUAGCGCCAACGUUCUCAACUAUGACACGCAAAACGCGUGCUCCGUUGAUUGGAGUUUAUCAUG", "note": "[A29C A41U G83A A138U]", "polymerase ribozyme fitness (log ratio)": "≤ -4.2"},
      {"variant": "GGAUCUUCUCGAUCUAACAAAAAAGACACAUCUGCCACAAAGCUUGAGAGCAUCUUCGGAUGCAGAGGCGGCAGCCUUCGGUGGCGCGGUAGCGGCAACGUUCUCAACUAUGACACGCAAAACGCGUGCUCCGUUGAACAUCGUUUAUCAUG", "note": "[A29C A89G C95G U139C G140A G141U A142C]", "polymerase ribozyme fitness (log ratio)": "≤ -4.2"},
      {"variant": "GGAUCUUCUCGAUCUAACAAAAAAGACACAUCUGCCACAUCGCUUGAGAGCAUCUUCGGAUGCAGAGGCGGCAGCCUUCGGUGACGCGAUAGCGCCAACGUUCUCAACUAUGACACGCAAAACGCGUGCUCCGUUGAAUGAAGUUUAUCAUG", "note": "[A29C A40U A41C G84A G141A]", "polymerase ribozyme fitness (log ratio)": "≤ -4.2"},
      {"variant": "GGAUCUUCUCGAUCUAACAAAAAAGACUAAUCUGCCACAAAGCUUGAGAGCAGCUUCGGAUGCAGGGGAGGCAGCCUUGGGUGGCGCGAUAGCCCCAACGUUCUCAAGUAUGACACGCAAAACGCGUGUUCCGUUGUAUGGAGUUUAUCAUG", "note": "[A28U U53G A66G C69A C79G G94C C108G C129U A137U]", "polymerase ribozyme fitness (log ratio)": "≤ -4.2"},
      {"variant": "GGAUCUUCUCGAUCUAACAAAAAAGACUAAUCUGCCACAAAGCGUGAGAGCAUCUUCGGAUGCAGAGGCGGCAGCCUUCGGGGGCGUGAUAGCGCCAACGUUCUCAACUAUGAUACGCAAAACGCGUGCUCCAUUGAAUGGAGUUGAUCAUG", "note": "[A28U U44G U82G C87U C114U G133A U146G]", "polymerase ribozyme fitness (log ratio)": "≤ -4.2"},
      {"variant": "GGAUCUUCUCGAUCUAACAAAAAAGACACAUCUGCCACAAAGCUUGAGAGCGUCUUCGGAUGCAGAGGCGGCAGCCUUCGGUCGCGCGAUAGCGCCAACGUUCUCCACUAUGACACGCAAAACGCGUGCUCCGUUGAAUGGAGUUUAUCAUG", "note": "[A29C A52G G83C A106C]", "polymerase ribozyme fitness (log ratio)": "≤ -4.2"},
      {"variant": "GGAUCUUCUCGAUCUAACAAAAAAGACACAUCUGUCACAAAGCUUGAGACCAUCUUCUGAGGCAGAGGCGGCAGCCUUCGGUGGCGCGAUAGCGCAAACGUUCUCAACUAUGACACGCAAAACGCGUGCUCCGAUGAAUGGAGUUUAUCAUG", "note": "[A29C C35U G50C G58U U61G C96A U134A]", "polymerase ribozyme fitness (log ratio)": "≤ -4.2"},
      {"variant": "GGAUCUUCUCGAUCUAACAAAAAAGACUAAUCUGCCACAAAGCUUGAGAGCAUCUACGGAUGCAGAGGCGGCAGCCUUCGAUGGCGCGAUAGCGUCAACGUUCUCAACUAUGACACGCAAAACGCGUGCUCCGUUGAAUGGAGUUUAUCAUG", "note": "[A28U U56A G81A C95U]", "polymerase ribozyme fitness (log ratio)": "≤ -4.2"},
      {"variant": "GGAUCUUCUCGAUCUAACAAAAAAGACACAUCUGCCACUAAGCUUGAGAGCCUCUUCGGAUGCAGAGGCGGCAGCCUUCGGUGGCGCGAUAGCGCCAACGGUCUCAACUAUGACACGCAAAACGGAUGCUCCGUUGAAUGGAUUUCAUCAUG", "note": "[A29C A39U A52C U101G C125G G126A G143U U146C]", "polymerase ribozyme fitness (log ratio)": "≤ -4.2"},
      {"variant": "GGAUCUUCUCGAUCUAACAAAAAAGACACAUCUGCCACAAUGCUUGAGAGCAUCUUCGGAUGCAGAGGCGGCAGCCUUCGCUGGCCCGAUAGCGCCAACGUUCUGUACUAUGACACGCAAAACGCGUGCUCCGUUGAAUGGAGUUUAUCAUG", "note": "[A29C A41U G81C G86C C105G A106U]", "polymerase ribozyme fitness (log ratio)": "≤ -4.2"},
      {"variant": "GGAUCUUCUCGAUCUAACAAAAAAGACACAUCUGCCUCAAAGCUUGAGAGCAUCUUCGGAUGCAGAGGCGGCAGCCUUCGGUGGCGCGAUAGCGCCAACGUUCUCAACUAUGACACGCAAAACGCGUGCUCCAUUGAAUGGAGUUUAUCAUG", "note": "[A29C A37U G133A]", "polymerase ribozyme fitness (log ratio)": "≤ -4.2"},
      {"variant": "GGAUCUUCUCGAUCUAACAAAAAAGACACAUCUGCCACAAAGCUUGAGAGCGUCAUCGGAUGCAGAGGCGGCAGGCUUCGGUGGCGCGAUAGCGCCAACGUUCUCUACUGUGACACGCAAUACGCGAGCUCCGUUGAAUGGAGUUUAUCAUG", "note": "[A29C A52G U55A C75G A106U A110G A121U U127A]", "polymerase ribozyme fitness (log ratio)": "≤ -4.2"}
    ]}
  ]
}
